From US20230357447A1 (JANUX THERAPEUTICS, published 2023)

Tests used:
[1] = molecular target: T1, Anti-CD28 scFv (VH-linker 1-VL) (biotinylated for capture on neutravidin plates); assay: phage ELISA, scFv captured on plate;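 also: crude clonal phage supernatants added to wells preincubated with soluble CD28 or with blocking buffer only, bound phage read out by HRP-linked anti-M13 antibody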
Experimental: (§1) Clonal phage were harvested as crude supernatants and screened via standard enzyme linked immunosorbent assays (ELISAs). […] Prior to the addition of clonal phage, wells were incubated with blocking buffer and CD28 soluble protein or blocking buffer alone. Without washing or aspirating, clonal phage supernatants were then added to the wells and incubated for a short time. Wells were then washed followed by detection of bound phage using a horse radish peroxidase conjugated anti-M13 antibody.

[2] = molecular target: T1, Anti-CD28 scFv (VH-linker 1-VL); assay: phage ELISA, scFv captured on plate, competitor soluble CD28;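 also: crude clonal phage supernatants added to wells pre-incubated with soluble CD28 or with blocking buffer only as control, bound phage read out with HRP-linked anti-M13 antibody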
Experimental: as §1

[3] = molecular target: T2, anti-CD28 scFv (VH-linker 1-VL) (biotinylated (site not stated)); assay: phage ELISA; scFv wells pre-incubated with soluble CD28 (competitor);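 also: crude clonal phage supernatants added to wells pretreated with soluble CD28 in blocking buffer, bound phage read via HRP-linked anti-M13 antibody, reference wells got blocking buffer only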
T2 construct: Captured as biotinylated scFv on neutravidin coated plates in the phage ELISA
T2 sequence (scFv, as listed by the source): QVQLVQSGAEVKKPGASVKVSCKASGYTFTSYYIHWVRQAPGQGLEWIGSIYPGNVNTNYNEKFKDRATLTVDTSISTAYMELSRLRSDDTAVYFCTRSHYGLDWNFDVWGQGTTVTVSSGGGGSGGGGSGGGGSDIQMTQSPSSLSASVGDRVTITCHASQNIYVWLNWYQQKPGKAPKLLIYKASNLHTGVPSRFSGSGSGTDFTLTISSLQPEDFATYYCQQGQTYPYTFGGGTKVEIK

T1 sequence (scFv, as listed by the source): as above

Row | Binder | Phage binding ELISA CD28 scFv signal [1] | Phage binding ELISA CD28 scFv signal in presence of CD28 [2] | CD28 scFv signal in presence of CD28 [3]
1 | MDWCPKHMWFMCFN [Phage-195] | 2.4 | 0.372 | 
2 | MDWCPRYMWYQCFS [Phage-196] | 2.36 | 0.357 | 
3 | MFWCPRYLWHECFN [Phage-163] | 1.08 | 0.175 | 
4 | MDWCPRSIWYLCFN (on phage (pIII fusion)) [Phage-278 clonal phage peptide] |  |  | 1.34
5 | MNWCPSDLWHLCFN [Phage-170] | 0.739 | 0.131 | 
6 | MDWCPTDMWIVCFA [Phage-208] | 1.5 | 0.172 | 
7 | MDWCPAYLWAECFS [Phage-175] | 0.64 | 0.12 | 
8 | MSWCPQDLWHVCFN [Phage-167] | 0.86 | 0.112 | 
9 | MDWCPWILWNECFN [Phage-179] | 0.581 | 0.137 | 
10 | MDWCPLYLWAECFN (on phage (pIII fusion)) [Phage-298 clonal phage peptide] |  |  | 0.193
11 | MHWCPINLWNECFS [Phage-184] | 0.316 | 0.098 | 
12 | MDWCPRNMWAQCFA [Phage-199] | 2.31 | 0.209 | 
13 | MNWCPSYMWDQCFA [Phage-213] | 0.854 | 0.105 | 
14 | MDWCPRAMWDKCFF [Phage-212] | 0.985 | 0.094 | 
15 | MDWCPTYMWSECFN [Phage-214] | 0.754 | 0.107 | 
16 | MDWCPKHLWNECFN [Phage-174] | 0.663 | 0.105 | 
17 | IHWCPINMWDKCYN [Phage-206] | 2.08 | 0.203 | 
18 | MDWCPMNMWYQCFN [Phage-216] | 0.639 | 0.137 | 
19 | MFWCPMDMWDQCFN [Phage-202] | 2.26 | 0.207 | 
20 | MDWCPRDMWAECFF [Phage-190] | 2.69 | 2.26 | 
21 | MDWCPSDMWHECYA [Phage-194] | 2.47 | 0.2 | 
22 | MDWCPKDLWHECFN [Phage-168] | 0.762 | 0.1 | 
23 | VDWCPRYLWHVCYN [Phage-189] | 0.065 | 0.061 | 
24 | MDWCPRAMWNHCFN [Phage-198] | 2.33 | 0.426 | 
25 | MDWCPFYLWDECFL [Phage-165] | 1.02 | 0.141 | 
26 | MDWCPRDMWFECFA [Phage-210] | 1.31 | 0.143 | 

Row | Binder | Phage binding ELISA CD28 scFv signal [1] | Phage binding ELISA CD28 scFv signal in presence of CD28 [2] | CD28 scFv signal in presence of CD28 [3]
27 | MDWCPKFLWDLCFA [Phage-164] | 1.07 | 0.139 | 
28 | MFWCPFDMWHFCFN [Phage-200] | 2.29 | 0.469 | 
29 | MDWCPSDLWHECFH [Phage-176] | 0.629 | 0.164 | 
30 | IDWCPRDLWALCFN [Phage-183] | 0.37 | 0.129 | 
31 | MDWCPRAMWHECFY [Phage-207] | 1.92 | 0.129 | 
32 | MDWCPMDMWVNCFN [Phage-193] | 2.52 | 0.277 | 
33 | MYWCPRDLWDVCFN [Phage-181] | 0.512 | 0.102 | 
34 | MDWCPRFMWDLCFA (on phage (pIII fusion)) [Phage-265 clonal phage peptide] |  |  | 0.725
35 | IGKLTLCLNADLVI [Phage-187] | 0.116 | 0.1 | 
36 | MDWCPMNLWSECFN [Phage-173] | 0.67 | 0.124 | 
37 | MDWCPRDMWYECFN [Phage-191] | 2.56 | 0.235 | 
38 | DVWCPKYMWSLCFN [Phage-192] | 2.53 | 0.418 | 
39 | MNWCPSHLWHMCYF [Phage-171] | 0.702 | 0.192 | 
40 | MDWCPRDMWDQCFD [Phage-201] | 2.29 | 0.119 | 
41 | MDWCPVSLWDHCFN [Phage-177] | 0.616 | 0.1 | 
42 | MDWCPPYLWYECFA [Phage-172] | 0.692 | 0.094 | 
43 | MDWCPRDLWNLCFF (on phage (pIII fusion)) [Phage-236 clonal phage peptide] |  |  | 0.436
44 | IDWCPQDMWFYCFN [Phage-209] | 1.42 | 0.16 | 
45 | MSWCPRDMWFYCYA [Phage-203] | 2.25 | 0.174 | 
46 | MDWCPSYLWDQCFF [Phage-188] | 0.083 | 0.079 | 
47 | MHWCPRSLWNECYF [Phage-182] | 0.456 | 0.115 | 
48 | MDWCPRHMWYECFF [Phage-197] | 2.34 | 0.298 | 
49 | QDWCPTYLWHHCFN [Phage-186] | 0.123 | 0.122 | 
50 | MDWCPRYMWNECFN [Phage-215] | 0.687 | 0.128 | 
51 | MDWCPTDMWHHCFL [Phage-205] | 2.2 | 0.126 | 
52 | MDWCPRHLWTECFS (on phage (pIII fusion)) [Phage-297 clonal phage peptide] |  |  | 0.243
